Data as given in the supplement of paper PMC6755084.

test system: F1*sub RNA substrate (template-directed ligation); assay: fraction ligated after 30 min (ligated reads / total reads); higher = more ligase activity; conditions: 42 °C
Procedure: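 Chip-synthesised pool of F1* ligase ribozyme variants (all single and double substitutions, single, double and triple deletions in the catalytic core and GAA bulge, plus designed variants) was transcribed with T7 and reacted as a pool with excess substrate F1*sub for 30 min at 42 C in 50 mM EPPS pH 8.5, 25 mM MgCl2. Ligated and unligated bands were separated by PAGE, barcoded by RT and deep sequenced; fraction ligated = ligated reads / total reads per variant, relative activity = FL / FL of wild type (0.826). Sequences are the DNA template of the ribozyme.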

Sequence | fraction ligated
GAGACCGCAACTGAAAAGTTGTTATCACTGTCGTAAGACACTTTGGATGGGTTGGTTCTGCACGTAGAAGCAAAAGGC [3d1463] | 0.0111
GAGACCGCAACTGAAAAGTTGTTATCACTTGTCGTAAGACACTTTGGATGGGTTGGTTCTGCACGTAGAAGCAAAAGGC [2d299] | 0.02
GAGACCGCAACTGAAAAGTTGTTATCACTTGTCGTAAGCACTTTGGATGGGTTGGTTCTGCACGTAGAAGCAAAAGGC [3d2151] | 0.116
GAGACCGCAACTGAAAAGTTGTTATCCTTGTCGTAAGACACTTTGGATGGGTTGGTTCTGCACGTAGAAGCAAAAGGC [3d1120] | 0.00301
GAGACCGCAACTGAAAAGTTGTTATCACTTGTCGTAAACACTTTGGATGGGTTGGTTCTGCACGTAGAAGCAAAAGGC [3d2104] | 0.0572
GAGACCGCAACTGAAAAGTTGTTATCACTTGTCGTAAGACACTTTGGATGGGTTGTTCTGCACGTAGAAGCAAAAGGC [3d2283] | 0.021
GAGACCGCAACTGAAAAGTTGTTATCACTTGTCGTAAGAACTTTGGATGGGTTGGTTCTGCACGTAGAAGCAAAAGGC [3d2182] | 0.0451
GAGACCGCAACTGAAAAGTTGTTATCACTTGTCGTAAGACACTTTGGTGGGTTGGTTCTGCACGTAGAAGCAAAAGGC [3d2276] | 0.00831
GAGACCGCAACTGAAAAGTTGTTATCACTTGTCGTAAGACACTTGGATGGGTTGGTTCTGCACGTAGAAGCAAAAGGC [3d2254] | 0.00633
GAGACCGCAACTGAAAAGTTGTTATACTTGTCGTAAGACACTTTGGATGGGTTGGTTCTGCACGTAGAAGCAAAAGGC [3d948] | 0
GAGACCGCAACTGAAAAGTTGTTATCACTTGTCGTAAGACACTTTGGATGGTTGGTTCTGCACGTAGAAGCAAAAGGC [3d2282] | 0.0129
GAGACCGCAACTGAAAAGTTGTTATCACTTGTCGTAAGACCTTTGGATGGGTTGGTTCTGCACGTAGAAGCAAAAGGC [3d2206] | 0.0611
GAGACCGCAACTGAAAAGTTGTTATCATTGTCGTAAGACACTTTGGATGGGTTGGTTCTGCACGTAGAAGCAAAAGGC [3d1292] | 0.00677
GAGACCGCAACTGAAAAGTTGTTATCACTTGTCGTAAGACACTTTGGATGGGTTCGTTCTGCACGTAGAAGCAAAAGGC [s80] | 0.0169
GAGACCGCAACTGAAAAGTTGTTACACTTGTCGTAAGACACTTTGGATGGGTTGGTTCTGCACGTAGAAGCAAAAGGC [3d737] | 0.00325
GAGACCGCAACTGAAAAGTTGTTATCACTTGTCGTAAGACACTTTGGATGGGTTTGTTCTGCACGTAGAAGCAAAAGGC [s81] | 0.0148
GAGACCGCAACTGAAAAGTTGTTATCACTTGTCTAAGACACTTTGGATGGGTTGGTTCTGCACGTAGAAGCAAAAGGC [3d1901] | 0.0966
GAGACCGCAACTGAAAAGTTGTATCACTTGTCGTAAGACACTTTGGATGGGTTGGTTCTGCACGTAGAAGCAAAAGGC [3d276] | 0.00404
GAGACCGCAACTGAAAAGTTGTTATCACTTTCGTAAGACACTTTGGATGGGTTGGTTCTGCACGTAGAAGCAAAAGGC [3d1584] | 0.0193
GAGACCGCAACTGAAAAGTTGTTATCACTTGTCGTAAGACACTTTGATGGGTTGGTTCTGCACGTAGAAGCAAAAGGC [3d2270] | 0.00433
GAGACCGCAACTGAAAAGTTGTTATCACTTGTCGAAGACACTTTGGATGGGTTGGTTCTGCACGTAGAAGCAAAAGGC [3d1980] | 0.102
GAGACCGCAACTGAAAAGTTGTTATCACTTGCGTAAGACACTTTGGATGGGTTGGTTCTGCACGTAGAAGCAAAAGGC [3d1704] | 0.0839
GAGACCGCAACTGAAAAGTTGTTATCACTTGTCGTAAGACATTTGGATGGGTTGGTTCTGCACGTAGAAGCAAAAGGC [3d2230] | 0.00375
GAGACCGCAACTGAAAAGTTGTTTCACTTGTCGTAAGACACTTTGGATGGGTTGGTTCTGCACGTAGAAGCAAAAGGC [3d507] | 0.00164
GAGACCGCAACTGAAAAGTTGTTATCACTTGTCGTAGACACTTTGGATGGGTTGGTTCTGCACGTAGAAGCAAAAGGC [3d2058] | 0.0726
GAGACCGCAACTGAAAAGTTGTTATCACTTGTCGTAAGACACTTTGGAGGGTTGGTTCTGCACGTAGAAGCAAAAGGC [3d2280] | 0.0051
GAGACCGCAACTGAAAAGTTGTTATCACTTGTGTAAGACACTTTGGATGGGTTGGTTCTGCACGTAGAAGCAAAAGGC [3d1809] | 0.0204

test system: F1*subA RNA substrate (template-directed ligation); assay: fraction ligated after 30 min (ligated reads / total reads); higher = more ligase activity; sequences stand for … in GAGACCGCAACTGAAAAGTTGT…TTTCTGCACGTAGAAGCAAAAGGC; conditions: 42 °C, parent ribozyme: minF1
Procedure: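 Chip-synthesised pool of minF1 ligase ribozyme variants (single and double substitutions, single to quadruple deletions, bulge and P2 designed variants) was transcribed with T7 and reacted as a pool with excess substrate F1*subA for 30 min at 42 C in 50 mM EPPS pH 8.5, 25 mM MgCl2. Ligated and unligated RNAs were separated by PAGE, barcoded by RT and deep sequenced; fraction ligated = ligated reads / total reads, relative activity = FL / FL of wild-type minF1 (0.76); sequencing FL correlated with PAGE (R2 = 0.98). Sequences are the DNA template of the ribozyme.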

Sequence | fraction ligated
TATCAGAATGGATGGGTT [4d1042] | 0.00126
TATCAGAAATGGATGGGTT [3d379] | 0.00181
TATCAGAAATGGAGGGTTG [3d376] | 0.00056
TATCAGAAATGGATGGTTA [3d377] | 0.00122
TATCAGAAATGGATGGTTG [3d378] | 0.00121
TATCAGAAATGATGGGTTG [3d366] | 0.000941
ATCAGAAATGGATGGTTG [4d309] | 0.000441
TATCAGAATGGATGGTTG [4d1041] | 0.00128
TATCAGAAATGGATGGGTT [s45 (=3d379)] | 0.00181
TATCAGAAATGATGGTTG [4d1092] | 0.00043
TATCAGAAAGGATGGTTG [4d1069] | 0.000981
TATCAGAAAGGATGGGTT [4d1070] | 0.00116
TATCAGAAATGGTGGGTTG [3d372] | 0.000922
TATCAGAAATGATGGGTT [4d1093] | 0
ATCAGAAATGGATGGGTT [4d310] | 0.0014
